Columns and labels:
recombinant mouse sTNFR1 [1] = molecular target: T1, recombinant mouse sTNFR1 (mouse, UniProt P25118 30-212); assay: SPR; Biacore T200, HBS-EP+, 25°C; mouse or human TNFR1 amine-coupled on CM5 chip; DMS5540 injected at 7 concentrations, 2-fold dilutions from 16 nM to 0.125 nM, 50 μl/min; 1:1 binding model; settings: both partners purified
T1 construct: mouse TNF receptor 1 (TNFR1), soluble form; The methods call the protein amine-coupled to the CM5 chip only 'recombinant mouse TNFR1'; also called mouse TNFR1; mTNFR1; source: bought: R&D Systems (425-R1/CF)
T1 sequence (looked up): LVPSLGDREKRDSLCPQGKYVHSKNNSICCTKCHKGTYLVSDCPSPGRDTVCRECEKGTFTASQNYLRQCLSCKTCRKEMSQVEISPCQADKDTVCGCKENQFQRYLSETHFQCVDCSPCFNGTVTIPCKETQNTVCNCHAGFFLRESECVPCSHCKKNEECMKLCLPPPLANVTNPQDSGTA

recombinant mouse sTNFR1 [2] = molecular target: T1, recombinant mouse sTNFR1; assay: cell-based or functional assay

B1: DMS5540 (bispecific antibody)
chain: EVQLLESGGGLVQPGGSLRLSCAASGFTFNRYSMGWLRQAPGKGLEWVSRIDSYGRGTYYEDPVKGRFSISRDNSKNTLYLQMNSLRAEDTAVYYCAKISQFGSNAFDYWGQGTQVTVSSASTDIQMTQSPSSLSASVGDRVTITCRASRPIGTMLSWYQQKPGKAPKLLILFGSRLQSGVPSRFSGSGSGTDFTLTISSLQPEDFATYYCAQAGTHPTTFGQGTKVEIKR
notes: anti-mouse TNFR1 VH dAb DOM1m-21-23; three residue linker (Ala-Ser-Thr); About 25 kDa; two human single variable domains on one chain; also called mouse TNFR1 antagonist; genetic fusion of DOM1m-21-23 with the AlbudAb DOM7h-11-12; source: E. coli BL21(DE3) strain derivatives, purified from culture supernatant (Protein-A, cation exchange, SEC when necessary)
Work on B1 yielded a Kd (recombinant mouse sTNFR1 [1]) of 0.27 nM, a koff (recombinant mouse sTNFR1 [1]) of 0.000217 s⁻¹ and a kon (recombinant mouse sTNFR1 [1]) of 798000 M⁻¹ s⁻¹. For the same binder, the “EC50 of inhibition of mouse TNF-α (20 pg/ml) induced cytotoxicity in mouse L929 cells” value (recombinant mouse sTNFR1 [2]) was 1.3 nM.

B2: DOM1m-21-23 (antibody, V domains shown)
VH: EVQLLESGGGLVQPGGSLRLSCAASGFTFNRYSMGWLRQAPGKGLEWVSRIDSYGRGTYYEDPVKGRFSISRDNSKNTLYLQMNSLRAEDTAVYYCAKISQFGSNAFDYWGQGTQVTVSS
With B2 the “EC50 of inhibition of mouse TNF-α (20 pg/ml) induced cytotoxicity in mouse L929 cells” value (recombinant mouse sTNFR1 [2]) was 1.7 nM.

Reference: publication PMC4564187, “Pharmacokinetic and Pharmacodynamic Characterisation of an Anti-Mouse TNF Receptor 1 Domain Antibody Formatted for In Vivo Half-Life Extension” (PLoS ONE, 2015)
